In test [1] the target is CTL-19613 IgG. The experiment in a line: BLI; tip anti-CD3 IgG, solution ADI-34134 Fab. The procedure:
(§1) ForteBio affinity measurements were performed generally as previously described (Estep et al., MAbs. 2013 5(2):270-8). Briefly, ForteBio affinity measurements were performed by loading antibody IgG or Fabs on-line onto AHC sensors. Sensors were equilibrated off-line in assay buffer for 30 minutes and then monitored on-line for 60 seconds for baseline establishment. For avid binding measurement, sensors with loaded antibodies were exposed to IgG or Fab solutions for 3 minutes, afterwards they were transferred to assay buffer for 3 minutes for off-rate measurement. Kinetics data were fit using a 1:1 binding model in the data analysis software provided by ForteBio to obtain equilibrium dissociation constant (KD=koff/kₒₙ) values. In each column, tip-immobilized antibodies are listed first and solution antibodies second.
(§2) CTL-19613 is an IgG1 antibody prepared with anti-CD3 variable domains corresponding with those of clone 12C described in United States Publication Number US 2010/0183615 (e.g., see paragraphs 469-479 and FIG. 25 thereof), which also make up the CD3 binding domain of the bispecific antibody pasotuxizumab. […] In each column, tip-immobilized antibodies are listed first and solution antibodies second.
(In BLI a coated tip is dipped into the sample, and binding shifts an interference pattern.)

The target in test [2] is T1, ADI-26913 IgG.
T1 construct: anti-CD3 IgG
T1 sequence (VH, as listed by the source limits assumed, chain 1 of 2): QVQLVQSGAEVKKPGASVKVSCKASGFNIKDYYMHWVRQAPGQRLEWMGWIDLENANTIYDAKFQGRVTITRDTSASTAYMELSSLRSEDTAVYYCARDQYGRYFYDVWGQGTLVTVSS
T1 sequence (VL, as listed by the source limits assumed, chain 2 of 2): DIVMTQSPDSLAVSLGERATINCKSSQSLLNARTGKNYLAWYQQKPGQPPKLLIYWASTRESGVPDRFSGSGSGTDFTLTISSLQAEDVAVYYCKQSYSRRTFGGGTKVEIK
The experiment in a line: BLI; tip anti-CD3 IgG, solution ADI-34134 Fab. The procedure:
as §1, §2

In test [3] the target is T2, ADI-26906 IgG.
T2 construct: anti-CD3 IgG
T2 sequence (VH, as listed by the source limits assumed, chain 1 of 2): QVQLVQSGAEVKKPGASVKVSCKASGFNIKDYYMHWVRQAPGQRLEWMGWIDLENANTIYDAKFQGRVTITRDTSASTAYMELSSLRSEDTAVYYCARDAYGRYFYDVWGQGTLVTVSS
The experiment in a line: BLI; tip anti-CD3 IgG, solution ADI-34134 Fab. How it is done:
as §1, §2

In a further test the target is T3, ADI-26941 IgG.
T3 construct: anti-CD3 IgG
T3 sequence (VH, as listed by the source limits assumed, chain 1 of 2): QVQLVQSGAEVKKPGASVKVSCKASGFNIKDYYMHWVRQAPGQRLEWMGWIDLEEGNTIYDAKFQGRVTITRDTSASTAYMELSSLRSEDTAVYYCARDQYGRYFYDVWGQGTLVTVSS
T3 sequence (VL, as listed by the source limits assumed, chain 2 of 2): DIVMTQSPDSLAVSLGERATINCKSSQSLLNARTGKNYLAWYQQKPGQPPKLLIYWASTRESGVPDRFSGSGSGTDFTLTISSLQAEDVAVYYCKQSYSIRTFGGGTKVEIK
Briefly: BLI; tip anti-CD3 IgG, solution ADI-34134 Fab. How it is done: as §1, §2

Test [4] deals with T4, ADI-26920 IgG.
T4 construct: anti-CD3 IgG
T4 sequence (VH, as listed by the source limits assumed, chain 1 of 2): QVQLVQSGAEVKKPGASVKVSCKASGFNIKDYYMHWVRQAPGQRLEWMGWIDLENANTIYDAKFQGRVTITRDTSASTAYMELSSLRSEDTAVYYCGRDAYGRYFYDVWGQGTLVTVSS
T4 sequence (VL, as listed by the source limits assumed, chain 2 of 2): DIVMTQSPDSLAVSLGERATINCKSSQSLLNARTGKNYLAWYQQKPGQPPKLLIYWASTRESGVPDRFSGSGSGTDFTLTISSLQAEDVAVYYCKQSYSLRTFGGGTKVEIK
Briefly: BLI; tip anti-CD3 IgG, solution ADI-34134 Fab. How it is done: as §1, §2

In test [5] the target is T5, ADI-22523 IgG.
T5 construct: anti-CD3 IgG
T5 sequence (VH, as listed by the source limits assumed, chain 1 of 2): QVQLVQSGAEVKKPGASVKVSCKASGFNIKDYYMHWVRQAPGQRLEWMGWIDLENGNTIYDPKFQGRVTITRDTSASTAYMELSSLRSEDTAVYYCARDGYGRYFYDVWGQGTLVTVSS
T5 sequence (VL, as listed by the source limits assumed, chain 2 of 2): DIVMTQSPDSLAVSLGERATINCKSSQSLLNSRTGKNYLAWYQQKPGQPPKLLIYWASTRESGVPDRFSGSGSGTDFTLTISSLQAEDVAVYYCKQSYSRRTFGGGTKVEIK
The experiment in a line: BLI; tip anti-CD3 IgG, solution ADI-34134 Fab. The procedure:
as §1, §2

The next test addresses T6, ADI-26921 IgG.
T6 construct: anti-CD3 IgG
The experiment in a line: BLI; tip anti-CD3 IgG, solution ADI-34134 Fab. How it is done: as §1, §2

A further test deals with T7, ADI-26928 IgG.
T7 construct: anti-CD3 IgG
T7 sequence (VH, as listed by the source limits assumed, chain 1 of 2): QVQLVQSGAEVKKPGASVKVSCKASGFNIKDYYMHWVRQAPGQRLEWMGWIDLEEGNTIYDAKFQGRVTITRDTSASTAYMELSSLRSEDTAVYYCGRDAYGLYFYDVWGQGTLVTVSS
The experiment in a line: BLI; tip anti-CD3 IgG, solution ADI-34134 Fab. How it is done: as §1, §2

In test [6] the target is T8, ADI-26916 IgG.
T8 construct: anti-CD3 IgG
T8 sequence (VH, as listed by the source, chain 1 of 2): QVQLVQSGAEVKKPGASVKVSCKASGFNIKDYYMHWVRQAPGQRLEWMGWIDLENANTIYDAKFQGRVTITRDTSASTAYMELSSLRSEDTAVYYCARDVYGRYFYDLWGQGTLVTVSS
Briefly: BLI; tip anti-CD3 IgG, solution ADI-34134 Fab. The procedure:
as §1, §2

The next test addresses T9, ADI-26927 IgG.
T9 construct: anti-CD3 IgG
The experiment in a line: BLI; tip anti-CD3 IgG, solution ADI-34134 Fab. The procedure: as §1, §2

For a further test, the target named is T10, ADI-26928 anti-CD3 bsIgG.
T10 construct: anti-HER2 IgG with one Fab arm replaced by the anti-CD3 scFv (printed 'Vx-VH', read as VL-VH); S354C and Y349C mutations; also called anti-CD3 bsIgG (ADI-26928 scFv); not shown: scFv linker; anti-HER2 Fab arm (heavy and light chain); hinge and Fc with S354C/Y349C
T10 sequence (VH, as listed by the source limits assumed, chain 1 of 2): as the sequence (VH, as listed by the source, chain 1 of 2) above, with N55E, A56G, A97G, V100A, R103L, L108V counted along it
Briefly: BLI; tip anti-CD3 bsIgG, solution ADI-34134 Fab. How it is done:
as §1
(§3) Additional analysis was conducted using bispecific antibody formats incorporating anti-CD3 antibody variable domains. Bispecific antibodies were prepared using standard IgG formats (bsIgG) with replacement of Fab arms with anti-CD3 scFvs in Vx-VH orientation and with S354C and Y349C mutations for disulfide stabilization. Antibodies used for Fab arm replacement were anti-HER2 IgG antibodies, with one Fab arm from each replaced by a scFv corresponding to a different anti-CD3 antibody. […] In each column, tip-immobilized antibodies are listed first and solution antibodies second. Anti-CD3 antibodies associated with incorporated scFvs are listed by antibody number.

For the next test, the target named is T11, ADI-26921 anti-CD3 bsIgG.
T11 construct: anti-HER2 IgG with one Fab arm replaced by the anti-CD3 scFv (printed 'Vx-VH', read as VL-VH); S354C and Y349C mutations; also called anti-CD3 bsIgG (ADI-26921 scFv); not shown: scFv linker; anti-HER2 Fab arm (heavy and light chain); hinge and Fc with S354C/Y349C
T11 sequence (VH, as listed by the source limits assumed, chain 1 of 2): as the sequence (VH, as listed by the source, chain 1 of 2) above, with N55E, A56G, V100A, L108V counted along it
The experiment in a line: BLI; tip anti-CD3 bsIgG, solution ADI-34134 Fab. How it is done: as §1, §3

Test [7] has as its target T12, ADI-26920 anti-CD3 bsIgG.
T12 construct: anti-HER2 IgG with one Fab arm replaced by the anti-CD3 scFv (printed 'Vx-VH', read as VL-VH); S354C and Y349C mutations; also called anti-CD3 bsIgG (ADI-26920 scFv); not shown: scFv linker; anti-HER2 Fab arm (heavy and light chain); hinge and Fc with S354C/Y349C
Briefly: BLI; tip anti-CD3 bsIgG, solution ADI-34134 Fab. The procedure: as §1, §3

Test [8] has as its target T13, ADI-26906 anti-CD3 bsIgG.
T13 construct: anti-HER2 IgG with one Fab arm replaced by the anti-CD3 scFv (printed 'Vx-VH', read as VL-VH); S354C and Y349C mutations; also called anti-CD3 bsIgG (ADI-26906 scFv); not shown: scFv linker; anti-HER2 Fab arm (heavy and light chain); hinge and Fc with S354C/Y349C
Briefly: BLI; tip anti-CD3 bsIgG, solution ADI-34134 Fab. The procedure:
as §1, §3

The next test concerns the target T14, ADI-22523 anti-CD3 bsIgG (In the assayed molecule VL and VH are joined as one scFv (printed 'Vx-VH' orientation) by an undisclosed linker and fused to an Fc, paired with an anti-HER2 half-IgG. They are given here as two …).
T14 construct: anti-HER2 IgG with one Fab arm replaced by the anti-CD3 scFv (printed 'Vx-VH', read as VL-VH); S354C and Y349C mutations; not shown: scFv linker between VL and VH; anti-HER2 heavy and light chains; hinge and Fc with S354C/Y349C
Briefly: BLI; tip anti-CD3 bsIgG, solution ADI-34134 Fab. How it is done:
as §1, §3

The target in a further test is T15, ADI-26927 anti-CD3 bsIgG.
T15 construct: anti-HER2 IgG with one Fab arm replaced by the anti-CD3 scFv (printed 'Vx-VH', read as VL-VH); S354C and Y349C mutations; also called anti-CD3 bsIgG (ADI-26927 scFv); not shown: scFv linker; anti-HER2 Fab arm (heavy and light chain); hinge and Fc with S354C/Y349C
T15 sequence (VH, as listed by the source limits assumed, chain 1 of 2): as the sequence (VH, as listed by the source, chain 1 of 2) above, with N55E, A56G, V100R, R103A, L108V counted along it
Briefly: BLI; tip anti-CD3 bsIgG, solution ADI-34134 Fab. The procedure: as §1, §3

Test [9] deals with T16, CTL-19613 anti-CD3 bsIgG (In the assay the two domains were one scFv (VL-VH orientation, linker not given). It replaced one Fab arm of an anti-HER2 IgG; S354C and Y349C mutations are stated for disulfide stabilization.).
T16 construct: anti-HER2 IgG with one Fab arm replaced by the anti-CD3 scFv (printed 'Vx-VH', read as VL-VH); S354C and Y349C mutations; also called anti-CD3 bsIgG (CTL-19613 scFv); not shown: scFv linker between VL and VH; anti-HER2 heavy and light chains of the other arm; hinge and Fc (with S354C / Y349C)
The experiment in a line: BLI; tip anti-CD3 bsIgG, solution ADI-34134 Fab. How it is done: as §1, §3

The target in test [10] is T17, ADI-26913 anti-CD3 bsIgG.
T17 construct: anti-HER2 IgG with one Fab arm replaced by the anti-CD3 scFv (printed 'Vx-VH', read as VL-VH); S354C and Y349C mutations; also called anti-CD3 bsIgG (ADI-26913 scFv); not shown: scFv linker; anti-HER2 Fab arm (heavy and light chain); hinge and Fc with S354C/Y349C
T17 sequence (VH, as listed by the source limits assumed, chain 1 of 2): as the sequence (VH, as listed by the source, chain 1 of 2) above, with V100Q, L108V counted along it
The experiment in a line: BLI; tip anti-CD3 bsIgG, solution ADI-34134 Fab. The procedure:
as §1, §3

Test [11] has as its target T12, ADI-26920 anti-CD3 bsIgG. The experiment in a line: BLI; tip anti-CD3 bsIgG, solution ADI-34145 Fab. How it is done:
as §1, §3

The target in test [12] is T13, ADI-26906 anti-CD3 bsIgG. Briefly: BLI; tip anti-CD3 bsIgG, solution ADI-34145 Fab. How it is done: as §1, §3
T13 sequence (VH, as listed by the source limits assumed, chain 1 of 2): as the sequence (VH, as listed by the source, chain 1 of 2) above, with V100A, L108V counted along it
The target in test [13] is T16, CTL-19613 anti-CD3 bsIgG. The experiment in a line: BLI; tip anti-CD3 bsIgG, solution ADI-34145 Fab. How it is done:
as §1, §3

A further test deals with T18, CTL-19672 anti-CD3 bsIgG (In the assay the two domains were one scFv (VL-VH orientation, linker not given). It replaced one Fab arm of an anti-HER2 IgG; S354C and Y349C mutations are stated for disulfide stabilization.).
T18 construct: anti-HER2 IgG with one Fab arm replaced by the anti-CD3 scFv (printed 'Vx-VH', read as VL-VH); S354C and Y349C mutations; not shown: scFv linker between VL and VH; anti-HER2 heavy and light chains of the other arm; hinge and Fc (with S354C / Y349C)
T18 sequence (VH, as listed by the source limits assumed, chain 1 of 2): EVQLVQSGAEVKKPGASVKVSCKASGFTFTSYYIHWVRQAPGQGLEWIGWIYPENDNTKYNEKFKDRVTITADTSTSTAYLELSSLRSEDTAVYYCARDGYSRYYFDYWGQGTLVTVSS
T18 sequence (VL, as listed by the source limits assumed, chain 2 of 2): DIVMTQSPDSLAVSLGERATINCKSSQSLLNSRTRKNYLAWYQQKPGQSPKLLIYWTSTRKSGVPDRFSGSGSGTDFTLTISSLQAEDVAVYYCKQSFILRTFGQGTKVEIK
Briefly: BLI; tip anti-CD3 bsIgG, solution ADI-34145 Fab. The procedure: as §1, §3

The target of test [14] is T17, ADI-26913 anti-CD3 bsIgG. The experiment in a line: BLI; tip anti-CD3 bsIgG, solution ADI-34145 Fab. How it is done: as §1, §3
For test [15], the target named is CTL-19613 IgG. The experiment in a line: BLI; tip anti-CD3 IgG, solution ADI-34145 Fab. How it is done: as §1, §2
In test [16] the target is T1, ADI-26913 IgG. The experiment in a line: BLI; tip anti-CD3 IgG, solution ADI-34145 Fab. The procedure: as §1, §2
Test [17] deals with T2, ADI-26906 IgG. Briefly: BLI; tip anti-CD3 IgG, solution ADI-34145 Fab. How it is done:
as §1, §2

A further test has as its target T19, CTL-19672 IgG.
T19 construct: IgG1 with the anti-CD3 variable domains of clone 38E4v1
Briefly: BLI; tip anti-CD3 IgG, solution ADI-34145 Fab. How it is done:
as §1, §2

The target of test [18] is T4, ADI-26920 IgG. Briefly: BLI; tip anti-CD3 IgG, solution ADI-34145 Fab. The procedure: as §1, §2
In test [19] the target is T5, ADI-22523 IgG. The experiment in a line: BLI; tip anti-CD3 IgG, solution ADI-34145 Fab. The procedure:
as §1, §2

For test [20], the target named is T8, ADI-26916 IgG. The experiment in a line: BLI; tip anti-CD3 IgG, solution ADI-34145 Fab. How it is done:
as §1, §2

Binding result and Kd data for two molecules are collected here from US20250019439A1 (Adimab, published 2025).

T12 sequence (VH, as listed by the source limits assumed, chain 1 of 2): as the sequence (VH, as listed by the source, chain 1 of 2) above, with A97G, V100A, L108V counted along it
T14 sequence (VH, as listed by the source limits assumed, chain 1 of 2): as the sequence (VH, as listed by the source, chain 1 of 2) above, with A56G, A62P, V100G, L108V counted along it
T9 sequence (VH, as listed by the source limits assumed, chain 1 of 2): as the sequence (VH, as listed by the source, chain 1 of 2) above, with N55E, A56G, V100R, R103A, L108V counted along it
T6 sequence (VH, as listed by the source limits assumed, chain 1 of 2): as the sequence (VH, as listed by the source, chain 1 of 2) above, with N55E, A56G, V100A, L108V counted along it

B1: ADI-34134 Fab (Fab, V domains shown)
VH: QVQLVQSGAEVKKPGSSVKVSCKASGGTFSSYAISWVRQAPGQGLEWMGGIIPIFGTANYAQKFQGRVTITADESTSTAYMELSSLRSEDTAVYYCARGAPNYYGSGGYDDGWFDPWGQGTLVTVSS
VL: EIVLTQSPGTLSLSPGERATLSCRASQSVSSDYLAWYQQKPGQAPRLLIYGASSRATGIPDRFSGSGSGTDFTLTISRLEPEDFAVYYCQQFGRVPTFGGGTKVEIK
notes: Fab made by papain digestion of the IgG
With B1, the binding result with CTL-19613 IgG [1] and with CTL-19613 anti-CD3 bsIgG [9] was “no binding” each time. Moreover, the dissociation constant Kd (usually the concentration at which binding is half-saturated) in the test with ADI-26913 IgG [2] is 79.8 nM; with ADI-26906 IgG [3] it was 17.8 nM; with ADI-26941 IgG, 138 nM; with ADI-26920 IgG [4], 31 nM; in the test with ADI-22523 IgG [5], 5.68 nM; with ADI-26921 IgG, 56.5 nM. In addition, the dissociation constant (Kd) is 185 nM with ADI-26928 IgG; 157 nM with ADI-26916 IgG [6]; 38.2 nM in the test with ADI-26927 IgG; 110 nM in the test with ADI-26928 anti-CD3 bsIgG; 37.1 nM with ADI-26921 anti-CD3 bsIgG; 28.7 nM with ADI-26920 anti-CD3 bsIgG [7]. Moreover, the Kd with ADI-26906 anti-CD3 bsIgG [8] is 27.2 nM; in the test with ADI-22523 anti-CD3 bsIgG, 10.9 nM; with ADI-26927 anti-CD3 bsIgG, 48.9 nM; in the test with ADI-26913 anti-CD3 bsIgG [10] it was 74.2 nM.

B2: ADI-34145 Fab (Fab, V domains shown)
VH: EVQLLESGGGLVQPGGSLRLSCAASGFTFSSYAMSWVRQAPGKGLEWVSTISGSGGSTYYADSVKGRFTISRDNSKNTLYLQMNSLRAEDTAVYYCARLGGRRGSGSSYYYYYGMDVWGQGTTVTVSS
VL: not shown
notes: as for B1
As to B2, the Kd with ADI-26920 anti-CD3 bsIgG [11] stood at 93.8 nM; with ADI-26906 anti-CD3 bsIgG [12] it was 24.4 nM; with ADI-26913 anti-CD3 bsIgG [14], 159 nM; with ADI-26913 IgG [16], 3.15 nM; with ADI-26906 IgG [17] it was 3.25 nM; in the test with ADI-26920 IgG [18], 8.97 nM. The Kd with ADI-22523 IgG [19] is 3.22 nM; with ADI-26916 IgG [20] it was 19.4 nM. The binding result with CTL-19613 anti-CD3 bsIgG [13], in the test with CTL-19672 anti-CD3 bsIgG, with CTL-19613 IgG [15] and in the test with CTL-19672 IgG was “no binding” each time.
